We go through three molecules from patent US20200115452A1 (Dana-Farber, published 2020).

Where no end group is shown, it is not given here.

For experiment [1], the target named is T1, PD-1 pITIM peptide KEDPSAVPVFSVD(pY)GELDFQWRE (phosphotyrosine (pY) at peptide residue 14 (PD-1 ITIM tyrosine)).
T1 construct: Coated on ELISA plates at 1 µg/ml; also called negative control pITIM peptide
T1 peptide: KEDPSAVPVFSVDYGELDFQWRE
Put plainly: peptide ELISA with antibody supernatants.

For experiment [2], the target named is T2, unphosphorylated peptide (unphosphorylated form of the PD-1 p248Tyr peptide) (human, not fully specified).
T2 peptide: VPEQTEYATIVF
Put plainly: ELISA, hybridoma screen. (In general: In an ELISA, binding on a coated surface is turned into a signal by an enzyme label.)
Source text: (§1) Hybridoma wells were screened by western blot on pervanadate treated Jurkat-hPD-1 lysates and by ELISA on PD-1 p248Tyr peptide conjugated to BSA and lack of reactivity to unphosphorylated peptide or BSA.

The target in experiment [3] is T3, BSA (UniProt P02769 25-607).
T3 construct: Carrier control in the hybridoma ELISA screen; also called carrier
Put plainly: ELISA, hybridoma screen.
Source text: as §1

T3 sequence (P02769 25-607 limits assumed): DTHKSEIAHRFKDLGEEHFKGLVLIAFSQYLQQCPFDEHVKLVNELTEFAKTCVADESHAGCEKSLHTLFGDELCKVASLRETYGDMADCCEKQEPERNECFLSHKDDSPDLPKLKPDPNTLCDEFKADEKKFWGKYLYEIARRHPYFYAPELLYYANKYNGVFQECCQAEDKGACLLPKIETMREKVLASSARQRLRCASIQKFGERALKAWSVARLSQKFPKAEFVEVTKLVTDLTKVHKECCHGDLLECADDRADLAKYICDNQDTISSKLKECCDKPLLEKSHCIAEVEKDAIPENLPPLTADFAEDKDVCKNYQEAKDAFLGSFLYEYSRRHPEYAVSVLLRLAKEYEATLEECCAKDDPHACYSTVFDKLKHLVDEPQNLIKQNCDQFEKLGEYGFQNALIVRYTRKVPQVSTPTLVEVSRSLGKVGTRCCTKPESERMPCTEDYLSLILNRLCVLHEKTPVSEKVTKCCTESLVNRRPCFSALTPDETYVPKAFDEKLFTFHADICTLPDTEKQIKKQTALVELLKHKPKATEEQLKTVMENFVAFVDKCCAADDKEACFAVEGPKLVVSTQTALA

B1: rabbit mAb 6H2/6K2 (antibody, V domains shown)
VH: CQSVEESGGRLVTPGTPLTLTCTVSGIDLNYYAMGWVRQAPGKGLEYIGWIKSSGSAYYARWVNGRFTISKTSSTTVDLKMTSPTTEDTATYFCARDGHNIIEYYDLWGQGTLVTVSS
VL: AIKMTQTPSSAEAAVGGTITINCQASQSISSSLAWYQQKPGQPPKLLIYKASTLASGVPSRFSGSRSGTQFTLTISGVQCDDAATYYCQQGWSGDNVDNIFGGGTEVVVK
notes: Rabbit monoclonal tested as culture supernatant
For the molecule B1, the binding result in experiment [1] is on record as “no binding”.

B2: anti-phosphorylated PD-1 monoclonal antibody 407.6G12 (antibody, mouse IgG2a, V domains shown)
VH: EVQLVESGGGLVQPKGSLKLSCAASGFTFNTYAMNWVRQAPGKGLEWVARIRSKSDNYATYYADSVKDRFTISRDDSQSMLYLQMNNLKTEDTAMYYCMRGITTVNVWGAGTTVTVSS
VL: DIVMTQSQKFMSTSVGDRVSVTCKASQNVGTNVAWYQQKPGQSPKALIYSASYRYSGVPDRFTGSGSGTDFTLTISNVHSEDLAEYFCQQYNFYPLTFGAGTKLELK
notes: Mouse IgG2a, kappa; A BV421-conjugated version was used for flow cytometry; also called clone 407.6G12; 307.6G12
As to B2, the binding result in experiment [2] and in experiment [3] was “no binding” each time.

B3: rabbit mAb 2H2/2K4 (antibody, V domains shown)
VH: QSLEESGGDLVKPGASLTLTCKASGFSFSGSYHMCWVRQAPGKGLEWIAHIYVGSSGGTYYASWAKGRFAISKTSSTTVTLQMTSLTAADTATYFCARRDTGGTSAYALWGQGTLVTVSS
VL: DVVMTQTPSSASEPVGGTVTIKCQASQSVSSRLAWYQQKPGQPPKLLIYKASTLASGVPSRFKGSGYGTEFTLTISDLECADAATYYCQCTYIDSTYGNNFGGGTEVVVK
notes: Rabbit monoclonal tested as culture supernatant, detected with anti-rabbit IgG Fc
Turning to B3, the binding result in experiment [1] is given as “no binding”.
